This is an account of results in CN113045675A (BEIJING ROCK EDGE BIOTECHNOLOGY CO LTD, dated 2021).

The target in experiment [1] is T1, CD22蛋白胞外段 (CD22 extracellular domain, C-terminal His tag) (human, UniProt P20273 20-687).
T1 construct: extracellular domain; also called CD22胞外段蛋白; CD22蛋白分子; not shown: C-terminal His tag
T1 sequence (looked up): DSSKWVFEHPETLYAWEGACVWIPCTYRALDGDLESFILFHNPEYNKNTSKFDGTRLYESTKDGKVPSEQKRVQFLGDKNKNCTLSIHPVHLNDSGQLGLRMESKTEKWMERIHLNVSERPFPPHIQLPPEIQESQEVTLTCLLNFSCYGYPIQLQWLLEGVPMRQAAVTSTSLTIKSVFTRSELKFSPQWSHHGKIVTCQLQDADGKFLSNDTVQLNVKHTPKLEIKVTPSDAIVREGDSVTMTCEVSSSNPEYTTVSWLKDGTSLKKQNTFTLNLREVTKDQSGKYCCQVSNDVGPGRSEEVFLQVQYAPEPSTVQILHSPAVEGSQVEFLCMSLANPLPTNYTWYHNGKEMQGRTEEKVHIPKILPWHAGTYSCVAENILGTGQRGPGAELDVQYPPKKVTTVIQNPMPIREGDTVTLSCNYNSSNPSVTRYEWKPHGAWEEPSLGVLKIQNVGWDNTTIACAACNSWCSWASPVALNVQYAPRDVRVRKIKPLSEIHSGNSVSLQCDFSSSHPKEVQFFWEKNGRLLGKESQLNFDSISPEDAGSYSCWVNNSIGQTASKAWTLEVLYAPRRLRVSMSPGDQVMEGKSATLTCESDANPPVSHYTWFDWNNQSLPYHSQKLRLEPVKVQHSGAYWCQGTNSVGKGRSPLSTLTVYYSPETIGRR
Description: SPR, Biacore T200; CD22 amine-coupled to a CM5 chip; screening of clones by affinity.

In experiment [2] the target is T1, CD22蛋白胞外段 (CD22 extracellular domain, …). Briefly: SPR, Biacore T200; CD22 amine-coupled to a CM5 chip; nanobody at 2, 4, 8, 16 and 32 nM; curve fit.

B1: BA125纳米抗体 (BA125 nanobody, VHH against CD22, C-terminal His tag) (VHH)
VHH: QVQLVESGGGLVQPGGSLRLSCAASGSIFGSNTMGWFRQAPGQQRELVAAMSTLGRTSYAVSVKGRFTISRDNAKNTVYLQMNSLKPEDTAVYYCKYTGTTPRDIYWGLGTQVTVSS
notes: also called 纳米抗体BA125克隆; BA125纳米抗体VHH区; not shown: C-terminal His tag
A word on the Kd: it is the concentration at which binding is half-saturated. Read a low Kd as tighter binding. For the molecule B1, the Kd in experiment [1] is roughly 10 nM; in experiment [2] it was 9.47 nM.
